# Test results published in patent US20260167731A1 (DOMAIN THERAPEUTICS, published 2026).
# Several values for one entry are separate records, joined by “and”; a condition that tells them apart may be missing. Equal entries are not always repeated.
# Assays:
# human CCR8 [1] = target: T1, human CCR8 (human, UniProt P51685 1-355); experiment: flow cytometry, HUT78 cells (endogenous CCR8)
# T1 construct: also called hCCR8; hCCR8_P51685
# Method: The same staining protocol was applied on human CCR8 transfected CHO cell line versus wild type CHO cell line, cutaneous T cell lymphoma HUT78 cell line and human activated T cell model.
# Briefly, 1·10⁵ cells per well in a 96 well plate were incubated with a dilution of unconjugated anti-CCR8 mAb at 10 μg/mL then diluted at 1/3.33, 4 dilution points (during 30 min at 4° C.). In human activated T cells model, prior to mAb incubation, cells were first incubated with 200 nM of hCCL1 (R&D Systems, Minneapolis, MN, USA) or buffer PBS (Invitrogen by Thermofisher Scientific, Illkirch-Graffenstaden, France) supplemented by 2% Fetal Bovine Serum (Invitrogen by Thermofisher Scientific, Illkirch-Graffenstaden, France) and 2 mM EDTA (Invitrogen by Thermofisher Scientific, Illkirch-Graffenstaden, France) during 1 hour at 4° C. To determine EC50 value, 8 concentrations of anti-CCR8 mAb were tested. Unbound antibodies were washed away with PBS (Invitrogen by Thermofisher Scientific, Illkirch-Graffenstaden, France) supplemented by 2% Fetal Bovine Serum (Invitrogen by Thermofisher Scientific, Illkirch-Graffenstaden, France) and 2 mM EDTA (Invitrogen by Thermofisher Scientific, Illkirch-Graffenstaden, France). Subsequently, cells are centrifuged (5 min at 400 g) and bound antibody is detected with F(ab′)₂-Goat anti-Mouse IgG (H+L) Cross-Adsorbed Secondary Antibody, Alexa Fluor 488 (dilution 1/500) (Invitrogen by Thermofisher Scientific, Illkirch-Graffenstaden, France) or with F(ab′)₂-Goat anti-Human IgG Fc Secondary Antibody, PE (Invitrogen by Thermofisher Scientific, Illkirch-Graffenstaden, France) (dilution 1/1000) at 4° C. for 30 min. Detection reagent is washed away and cells are centrifuged (5 min at 400 g) and resuspended in 30 μL PBS. Bound detection antibody is quantified on a MacsQuant16 (Miltenyi, Gladbach, Germany) (B1 or B2 channel, 5000 events per acquisition). During the experiment, the respective isotype mAb controls (mouse IgG1, mouse IgG2a, mouse IgG2b, mouse IgG3 or human IgG1) (Biolegend, Amsterdam, The Netherlands) are included to exclude any unspecific binding events.
# EC50 values were determined via nonlinear fit “log(agonist)vs.response−Variable slope (four parameters)” function of Graphpad prism. EC50 values were not constantly determined in the same experiments.
# human CCR8 [2] = target: T1, human CCR8; experiment: cell-based or functional assay
# human CCR8 [3] = target: T1, human CCR8; experiment: cell-based or functional assay; remark: listed apart in the source
# [4] = target: pm1, modified CCR8 related peptide (human, sulfated tyrosine at Y15); experiment: ELISA on coated CCR8 peptide (500 ng/mL), OD [cont.]
# Chain of pm1, modified CCR8 related peptide (human, sulfated tyrosine at Y15) (peptide, as listed by the source): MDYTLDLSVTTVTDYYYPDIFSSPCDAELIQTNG
# Outline: (§1)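 In this direct ELISA, CCR8-related peptides coated at 500 ng/mL are probed with anti-CCR8 mAbs (1 μg/mL, also 1/10 dilution; 90 min, room temperature). Read-out is TMB optical density.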
# [5] = target: pm6, modified CCR8 related peptide (human, sulfated tyrosines at Y16 and Y17); experiment: as above
# Chain of pm6, modified CCR8 related peptide (human, sulfated tyrosines at Y16 and Y17) (peptide, as listed by the source): as above
# Outline: as §1
# [6] = target: pm5, modified CCR8 related peptide (human, sulfated tyrosines at Y15 and Y17); experiment: as above
# Chain of pm5, modified CCR8 related peptide (human, sulfated tyrosines at Y15 and Y17) (peptide, as listed by the source): as above
# Outline: as §1
# [7] = target: pm4, modified CCR8 related peptide (human, sulfated tyrosines at Y15 and Y16); experiment: as above
# Chain of pm4, modified CCR8 related peptide (human, sulfated tyrosines at Y15 and Y16) (peptide, as listed by the source): as above
# Outline: as §1
# [8] = target: T2, pwt1, unmodified CCR8 related peptide (human, none (non-sulfated Y15, Y16, Y17)); experiment: as above
# T2 construct: First 34 amino acids of human CCR8, synthetic; also called unmodified peptide
# T2 sequence (peptide, as listed by the source): as above
# Outline: as §1
# [9] = target: pm3, modified CCR8 related peptide (human, sulfated tyrosine at Y17); experiment: as above
# Chain of pm3, modified CCR8 related peptide (human, sulfated tyrosine at Y17) (peptide, as listed by the source): as above
# Outline: as §1
# [10] = target: pm2, modified CCR8 related peptide (human, sulfated tyrosine at Y16); experiment: as above
# Chain of pm2, modified CCR8 related peptide (human, sulfated tyrosine at Y16) (peptide, as listed by the source): as above
# Outline: as §1
# [11] = target: pm8, modified CCR8 related peptide (human, sulfated tyrosines at Y15, Y16 and Y17); experiment: as above
# Chain of pm8, modified CCR8 related peptide (human, sulfated tyrosines at Y15, Y16 and Y17) (peptide, as listed by the source): as above
# Outline: as §1
# hCCR8 SNAP-tag = target: T3, hCCR8 SNAP-tag (human, UniProt P51685 1-355, SNAP-tag labelled with Lumi4-Terbium); experiment: HTRF Tag-lite, inhibition of hCCL1-AF647 binding to SNAP-tag hCCR8 on HEK-293
# T3 construct: also called human CCR8 engineered with a SNAP-tag at the N-terminus; not shown: SNAP-tag at the N-terminus
# Method: The inhibition of CCL1 binding to hCCR8 was evaluated with the Tag-Lite® technology from Cisbio (Revvity). Human CCR8 is engineered with a SNAP-tag at the N-terminus of the GPCR. hCCR8 SNAP-tag is transiently transfected on HEK-293 cell line using FuGene® (Promega, Madison, WI, USA). 48 hours after transfection, cells are labeled with the substrate Lumi4-Terbium® (Cisbio, Codolet, France) which covalently reacts with the SNAP-tag, for 1 h at 37° C. […] The Kd is previously obtained in a saturation binding assay on the same cells. […] The plate is next incubated at 21° C. for 2 h. Detection of HTRF signal is performed on the multiplate reader EnVision (PerkinElmer, Waltham, MA, USA). The HTRF (665/620) ratio is calculated by EnVision software, the data exported are considered as the total binding. The specific binding is calculated then by subtracting the non-specific signal from the total binding. The Ki and IC₅₀are calculated using the “One site—Fit Ki” and “One site—FitlogIC50” from GraphPad Prism 9 (Graphpad Software, San Diego, CA, USA), respectively.
# human CCR8 [12] = target: T1, human CCR8; experiment: cell-based or functional assay; remark: listed apart in the source
# human CCR8 [13] = target: T1, human CCR8; experiment: cell-based or functional assay; remark: listed apart in the source
# human CCR8 [14] = target: T1, human CCR8; experiment: cell-based or functional assay; remark: listed apart in the source
# CD20 (on B cells) = target: T4, CD20 (on B cells) (human, UniProt P11836); experiment: flow cytometry on PBMC of healthy donors, B cell gate (CD3-CD19+), % of binding, mean of two donors
# T4 construct: native on the surface of B cells (CD3-CD19+) in PBMC of healthy donors; the sheet names the cell type only
# T4 sequence (single chain, looked up): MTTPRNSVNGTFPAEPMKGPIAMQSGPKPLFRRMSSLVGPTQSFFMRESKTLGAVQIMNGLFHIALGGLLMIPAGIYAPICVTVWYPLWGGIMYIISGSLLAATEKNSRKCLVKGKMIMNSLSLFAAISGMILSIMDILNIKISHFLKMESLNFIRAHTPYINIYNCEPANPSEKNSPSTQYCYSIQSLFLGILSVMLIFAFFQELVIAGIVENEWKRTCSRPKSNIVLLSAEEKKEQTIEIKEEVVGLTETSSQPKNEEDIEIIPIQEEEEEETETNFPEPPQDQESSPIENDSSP
binder,measurement,setting,value
"humanized anti-CCR8 mAb 2-13 (antibody, human IgG1, kappa, Humanized, human IgG1 allotype G1m17 Fc with the terminal lysine deleted and the SDIE mutations) heavy: not shown light: DIVMTQAAPSLSVTPGESASISCTSSKSLLHSNGNTYLYWFLQKPGQSPQLLIYRMSNLASGVPDRFSGSGSGTAFTLKISRVEAEDVGVYYCMQHREYPFTFGSGTKLEIKRTVAAPSVFIFPPSDEQLKSGTASVVCLLNNFYPREAKVQWKVDNALQSGNSQESVTEQDSKDSTYSLSSTLTLSKADYEKHKVYACEVTHQGLSSPVTKSFNRGEC",% of labelled cells,human CCR8 [1],32%
same,"ADCP % Max of phagocytosis, HUT78 targets, monocyte-derived macrophages Donor 9",human CCR8 [2],9.65%
same,"hCCL1 (100 nM) residual response in %, Protocol #2, mAb 0.08 µg/mL ([…] nM)",human CCR8 [3],74%
same,"hCCL1 (100 nM) residual response in %, Protocol #2, mAb 0.4 µg/mL (2.67 nM)",human CCR8 [3],54%
same,"hCCL1 (100 nM) residual response in %, Protocol #2, mAb 10 µg/mL (66.7 nM)",human CCR8 [3],40%
same,"hCCL1 (100 nM) residual response in %, Protocol #3, mAb 0.05 µg/mL (0.33 nM)",human CCR8 [3],89%
same,"hCCL1 (100 nM) residual response in %, Protocol #3, mAb 0.5 µg/mL (3.33 nM)",human CCR8 [3],63%
same,"hCCL1 (100 nM) residual response in %, Protocol #3, mAb 5 µg/mL (33.3 nM)",human CCR8 [3],51%
same,binding result,[4],binds
same,binding result,[5],binds
same,binding result,[6],binds
same,binding result,[7],binds
same,binding result,[8],binds
same,binding result,[9],binds
same,binding result,[10],binds
same,binding result,[11],binds
same,IC50,hCCR8 SNAP-tag,0.09 µg/mL and 0.6 nM
same,Ki,hCCR8 SNAP-tag,0.05 µg/mL and 0.3 nM
same,"IC50, CCL1 induced hCCR8 Gi2 signaling (BRET, HEK-293)",human CCR8 [12],0.035 µg/mL and 0.232 nM
same,"ADCC EC50, HUT78 targets, NK cells Donor 1",human CCR8 [13],6.43 pM
same,"ADCC EC50, HUT78 targets, NK cells Donor 2",human CCR8 [13],2.16 pM
same,"IC50, CCL1 induced hCCR8 Gi2 signaling (BRET) at pH 6.5",human CCR8 [14],0.025 µg/ml and 0.165 nM
same,"IC50, CCL1 induced hCCR8 Gi2 signaling (BRET) at pH 7.4",human CCR8 [14],0.035 µg/ml and 0.232 nM
"afucosylated humanized anti-CCR8 mAb 2-16 (antibody, human IgG1, kappa, afucosylated Fc glycan, Same chains as 2-13, produced with 2-deoxy-2-fluoro-L-fucose (afucosylated)) heavy: not shown light: DIVMTQAAPSLSVTPGESASISCTSSKSLLHSNGNTYLYWFLQKPGQSPQLLIYRMSNLASGVPDRFSGSGSGTAFTLKISRVEAEDVGVYYCMQHREYPFTFGSGTKLEIKRTVAAPSVFIFPPSDEQLKSGTASVVCLLNNFYPREAKVQWKVDNALQSGNSQESVTEQDSKDSTYSLSSTLTLSKADYEKHKVYACEVTHQGLSSPVTKSFNRGEC",% of labelled cells,human CCR8 [1],34%
same,EC50,human CCR8 [1],400 pM
same,MFI fold change to isotype ctrl,human CCR8 [1],2.5 fold
same,"ADCP % Max of phagocytosis, HUT78 targets, monocyte-derived macrophages Donor 9",human CCR8 [2],8.29%
same,"ADCC EC50, HUT78 targets, NK cells Donor 1",human CCR8 [13],2.24 pM
same,"ADCC EC50, HUT78 targets, NK cells Donor 2",human CCR8 [13],0.42 pM
"Rituximab (antibody, V domains shown) VH: QVQLQQPGAELVKPGASVKMSCKASGYTFTSYNMHWVKQTPGRGLEWIGAIYPGNGDTSYNQKFKGKATLTADKSSSTAYMQLSSLTSEDSAVYYCARSTYYGGDWYFNVWGAGTTVTVSA VL: QIVLSQSPAILSASPGEKVTMTCRASSSVSYIHWFQQKPGSSPKPWIYATSNLASGVPVRFSGSGSGTSYSLTISRVEAEDAATYYCQQWTSNPPTFGGGTKLEIK",EC50 (read off the curve),CD20 (on B cells),~0.1 µg/mL
